This note sets out measurements from publication PMC9646512.

Holding throughout (details): all L-DNA (mirror image); ITC: 20 mM HEPES-NaOH, 150 mM NaCl, 5 mM KCl, 2 mM MgCl2, 1 mM CaCl2, pH 7.4, 25 C; EMSA: same plus 0.05% Tween 20 and 10% glycerol, room temperature 30 min …
Data set [1] has as its target T1, native human alpha-thrombin (Homo sapiens) (UniProt P00734+P00734). Briefly: EMSA. A general note: A gel shift assay detects complexes by their altered migration in electrophoresis.
The target in data set [2] is T1, native human alpha-thrombin (Homo sapiens). Briefly: ITC. Background: ITC needs no label: the signal is the heat of the interaction.
Data set [3] addresses native bovine alpha-thrombin (Bos taurus (bovine)) (UniProt P00735+P00735). Briefly: ITC.
The target in data set [4] is T1, native human alpha-thrombin (Homo sapiens). Briefly: thrombin activity inhibition.

One may read the Kd as the free concentration of one partner at which half of the binding sites on the other are occupied at equilibrium, for simple one-to-one binding. As for “GATGAACTTGTTGAAACCCAACGGGAGAATCGTTCATT [Cy5-L-9-2t aptamer]”, the Kd in data set [1] is 355 nM. Consider “ACGGAACGCGTTTCAAGACTACCGTGTTTGTTCCGT [L-9-1t aptamer]”, for which the Kd in data set [2] stood at 39 nM; in data set [3], 1030 nM. With “ACGGAACGCGTTTCAAGACTACCGTGTTTGTTCCGT [Cy5-L-9-1t aptamer]”, the Kd in data set [1] was determined as 21 nM.

Regarding “GGAACGCGTTTCAAGACTACCGTGTTTGTTCC [L-9-1t' aptamer]”, in data set [2], the Kd is 111 nM.

“GATGAACTTGTTGAAACCCAACGGGAGCCTCGTTCATT [Cy5-L-13t aptamer]”: the Kd in data set [1] was 28 nM. In the case of “CGGATCCAGTTACGGAACGCGTTTCAAGACTACCGTGTTTGTTCCGTTCATTCAGTAAGCTTCGG [L-9-1 aptamer]”, the Kd in data set [2] is 29 nM. One may read the IC50 as the concentration that inhibits the measured activity by half. With “CGGATCCAGTTACGGATGAACTTGTTGAAACCCAACGGGAGCCTCGTTCATTCAGTAAGCTTCGGTGG [L-13 aptamer]”, the equilibrium dissociation constant (Kd) in data set [2] was 22 nM. The IC50 in data set [4] stood at 27 nM. As to “GATGAACTTGTTGAAACCCAACGGGAGCCTCGTTCATT [L-13t aptamer]”, the Kd in data set [2] is 34 nM; in data set [3] it was 340 nM. The IC50 in data set [4] came to 46 nM. Turning to “GATGAACTTGTTGAAACCCAACGGGAGAATCGTTCATT [L-9-2t aptamer]”, the Kd in data set [2] was 251 nM; in data set [3], 426 nM. For the same sequence, the IC50 in data set [4] worked out at 479 nM. As for “CGGATCCAGTTACGGATGAACTTGTTGAAACCCAACGGGAGAATCGTTCATTCAGTAAGCTTCGG [L-9-2 aptamer]”, the Kd in data set [2] was determined as 168 nM. For the same sequence, the IC50 in data set [4] was 317 nM.
